Data published in patent US20080260755A1.

Tests used:
[1] = target: activated FIX-albumin fusion protein with cleavable linker (1088/797), activated by FXIa (human) (UniProt P00740); assay: cell-based or functional assay
[2] = target: activated FIX-albumin fusion protein with non-cleavable linker (980/797), activated by FXIa (human) (UniProt P00740); assay: cell-based or functional assay
[3] = tested on: FIX-albumin fusion protein with cleavable linker, construct no. 1088/797
[4] = tested on: FIX-albumin fusion protein with cleavable linker, construct no. 1089/797
[5] = tested on: FIX-albumin fusion protein with non-cleavable linker (1478/797)
[6] = target: FIX-albumin fusion protein with cleavable linker, construct no. 1088/797; remark: listed apart in the source
[7] = target: FIX-albumin fusion protein with cleavable linker, construct no. 1089/797; remark: listed apart in the source

Molecule: Antithrombin III (AT) (from UniProt P01008 33-464)
- clotting time (naPTT) after 120 min incubation with AT [1]: 540 s
- clotting time (naPTT), control without incubation with AT [1]: 210 s
- factor of increase in clotting time (naPTT) after 120 min incubation with AT [1]: 2.57 x
- clotting time (naPTT) after 120 min incubation with AT [2]: 411 s
- clotting time (naPTT), control without incubation with AT [2]: 196 s

Molecule: Factor XIa (FXIa)
- proteolytic cleavage in vitro, SDS-PAGE [3]: are activated and in parallel the linker is cleaved resulting in release of the albumin moiety
- proteolytic cleavage in vitro, SDS-PAGE [4]: are activated and in parallel the linker is cleaved resulting in release of the albumin moiety
- proteolytic cleavage in vitro, SDS-PAGE [5]: The fusion protein with non-cleavable linker did not show a corresponding release of the albumin moiety

B1: FVIIa (in the presence of tissue factor) (protein)
chain: ANAFLEELRPGSLERECKEEQCSFEEAREIFKDAERTKLFWISYSDGDQCASSPCQNGGSCKDQLQSYICFCLPAFEGRNCETHKDDQLICVNENGGCEQYCSDHTGTKRSCRCHEGYSLLADGVSCTPTVEYPCGKIPILEKRNASKPQGRIVGGKVCPKGECPWQVLLLVNGAQLCGGTLINTIWVVSAAHCFDKIKNWRNLIAVLGEHDLSEHDGDEQSRRVAQVIIPSTYVPGTTNHDIALLRLHQPVVLTDHVVPLCLPERTFSERTLAFVRFSLVSGWGQLLDRGATALELMVLNVPRLMTQDCLQQSRKVGDSPNITEYMFCAGYSDGSKDSCKGDSGGPHATHYRGTWYLTGIVSWGQGCATVGHFGVYTRVSQYIEWLQKLMRSEPRPGVLLRAPFP
- proteolytic cleavage in vitro in the presence of tissue factor (data not shown) [6]: also showed release of the albumin moiety in parallel to release of the FIX activation peptide
- proteolytic cleavage in vitro in the presence of tissue factor (data not shown) [7]: also showed release of the albumin moiety in parallel to release of the FIX activation peptide
